Reference: patent EP2112167A2 (Genentech, Inc., dated 2009)

Key:
EGFR = target: T1, EGFR (UniProt P00533 25-645, limits assumed); test: not described (cited: Fendly et al.)
T1 construct: also called ErbB1; epidermal growth factor receptor

ErbB3 = target: T2, ErbB3 (human, UniProt P21860 20-1342); test: not described
T2 construct: whole, on cells; In the co-immunoprecipitation it is the endogenous receptor of the cells (lysates); also called HER3

ErbB4 = target: T3, ErbB4 (UniProt Q15303 26-649, limits assumed); test: not described
T3 construct: also called HER4
T3 sequence (looked up): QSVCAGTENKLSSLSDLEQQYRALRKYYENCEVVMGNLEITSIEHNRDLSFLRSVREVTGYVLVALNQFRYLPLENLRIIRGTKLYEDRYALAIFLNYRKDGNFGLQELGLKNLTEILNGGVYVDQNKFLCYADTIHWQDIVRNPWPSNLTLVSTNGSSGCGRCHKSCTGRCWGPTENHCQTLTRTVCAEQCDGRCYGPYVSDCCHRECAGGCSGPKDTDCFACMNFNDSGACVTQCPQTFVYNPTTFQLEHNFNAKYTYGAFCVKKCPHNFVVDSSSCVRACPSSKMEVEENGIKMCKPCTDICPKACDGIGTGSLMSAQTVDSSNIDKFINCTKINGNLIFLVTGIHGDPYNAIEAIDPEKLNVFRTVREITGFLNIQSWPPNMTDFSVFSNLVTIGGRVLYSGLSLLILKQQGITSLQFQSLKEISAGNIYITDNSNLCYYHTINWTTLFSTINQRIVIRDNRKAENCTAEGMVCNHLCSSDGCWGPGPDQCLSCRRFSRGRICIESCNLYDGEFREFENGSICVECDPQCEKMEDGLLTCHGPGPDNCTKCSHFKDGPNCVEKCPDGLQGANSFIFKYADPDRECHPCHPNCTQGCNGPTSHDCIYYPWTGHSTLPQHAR

T2 sequence (P21860 20-1342): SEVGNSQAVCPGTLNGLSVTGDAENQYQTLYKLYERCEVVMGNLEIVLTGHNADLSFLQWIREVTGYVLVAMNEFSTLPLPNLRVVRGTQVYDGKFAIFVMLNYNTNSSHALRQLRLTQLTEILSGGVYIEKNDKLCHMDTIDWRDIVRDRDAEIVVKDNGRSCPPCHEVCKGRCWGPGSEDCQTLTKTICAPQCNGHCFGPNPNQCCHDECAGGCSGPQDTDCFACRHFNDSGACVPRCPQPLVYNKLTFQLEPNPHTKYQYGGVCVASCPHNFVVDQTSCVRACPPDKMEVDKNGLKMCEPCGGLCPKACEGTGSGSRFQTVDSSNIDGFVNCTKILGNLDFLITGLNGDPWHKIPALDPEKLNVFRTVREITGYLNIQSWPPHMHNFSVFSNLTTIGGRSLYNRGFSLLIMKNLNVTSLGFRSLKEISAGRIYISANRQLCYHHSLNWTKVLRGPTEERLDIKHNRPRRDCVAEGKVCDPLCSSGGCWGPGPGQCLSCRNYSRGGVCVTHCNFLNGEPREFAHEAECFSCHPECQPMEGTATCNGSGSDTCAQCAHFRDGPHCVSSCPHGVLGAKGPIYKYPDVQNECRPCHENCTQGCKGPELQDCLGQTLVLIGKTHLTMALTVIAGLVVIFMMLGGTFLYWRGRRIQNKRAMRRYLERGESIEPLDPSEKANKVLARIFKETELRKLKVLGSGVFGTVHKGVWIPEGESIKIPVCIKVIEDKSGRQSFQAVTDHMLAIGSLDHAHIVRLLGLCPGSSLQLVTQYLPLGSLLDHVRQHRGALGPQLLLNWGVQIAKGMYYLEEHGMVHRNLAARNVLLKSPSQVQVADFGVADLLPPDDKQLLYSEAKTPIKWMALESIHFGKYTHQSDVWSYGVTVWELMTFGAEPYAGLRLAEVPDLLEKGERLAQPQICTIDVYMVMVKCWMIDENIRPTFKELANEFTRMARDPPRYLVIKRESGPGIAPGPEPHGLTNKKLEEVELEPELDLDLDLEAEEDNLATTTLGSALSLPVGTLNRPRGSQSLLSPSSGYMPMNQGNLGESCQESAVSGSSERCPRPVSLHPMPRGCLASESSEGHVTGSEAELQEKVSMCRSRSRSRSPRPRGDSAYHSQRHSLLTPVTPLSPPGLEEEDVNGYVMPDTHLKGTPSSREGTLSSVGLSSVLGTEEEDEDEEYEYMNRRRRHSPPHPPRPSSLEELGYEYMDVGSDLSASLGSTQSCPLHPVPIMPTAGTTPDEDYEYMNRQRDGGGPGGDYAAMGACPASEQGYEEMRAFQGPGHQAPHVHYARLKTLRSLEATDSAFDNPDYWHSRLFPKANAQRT

binding result (EGFR): no binding | binding result (ErbB3): no binding | binding result (ErbB4): no binding
B1: murine monoclonal antibody 2C4 (antibody, V domains shown)
VH: EVQLQQSGPELVKPGTSVKISCKASGFTFTDYTMDWVKQSHGKSLEWIGDVNPNSGGSIYNQRFKGKASLTVDRSSRIVYMELRSLTFEDTAVYYCARNLGPSFYFDYWGQGTTLTVSS
VL: DTVMTQSHKIMSTSVGDRVSITCKASQDVSIGVAWYQQRPGQSPKLLIYSASYRYTGVPDRFTGSGSGTDFTFTISSVQAEDLAVYYCQQYYIYPYTFGGGTKLEIK
notes: Intact murine monoclonal antibody from hybridoma; also called mu 2C4; ATCC HB-12697
